Laboratory results: patent US20250114463A1, “LIVER-TARGETED DRUG AND USE THEREOF” (HANMI PHARM. CO., LTD., priority 2021, published 2025)
Bridges are numbered along the chain shown (N, C = ends). Where no end group is shown, it is not given here. [ ]: non-standard residue; d: D form. The star is where a group is joined. Acetyl(2-(4-imidazolyl)) = O=C(Cc1c[nH]cn1)*; Aib = CC(C)(N)C(=O)O

T1: human GIP receptor (human, UniProt P48546 22-466)
T1 sequence (looked up): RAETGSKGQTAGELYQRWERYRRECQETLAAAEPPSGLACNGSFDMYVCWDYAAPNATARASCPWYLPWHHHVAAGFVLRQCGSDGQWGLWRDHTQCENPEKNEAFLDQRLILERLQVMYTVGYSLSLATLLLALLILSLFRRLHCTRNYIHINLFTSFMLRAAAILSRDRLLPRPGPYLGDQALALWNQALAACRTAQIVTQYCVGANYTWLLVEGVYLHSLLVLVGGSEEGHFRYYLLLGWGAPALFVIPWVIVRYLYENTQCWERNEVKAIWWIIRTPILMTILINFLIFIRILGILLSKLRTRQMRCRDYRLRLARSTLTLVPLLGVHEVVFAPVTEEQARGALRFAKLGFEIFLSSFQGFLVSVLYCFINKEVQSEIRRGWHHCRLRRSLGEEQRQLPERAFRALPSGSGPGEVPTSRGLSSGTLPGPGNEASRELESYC

B1: triple agonist of SEQ ID NO: 64 (peptide)
peptide: Y[Aib]QGTFTSDYSKYLDECAAKEFVQWLLDHHPSSGQPPPS
modifications: bridge 16-20; not fully specified (C-terminus)
B2: triple agonist of SEQ ID NO: 76 (peptide)
peptide: Y[Aib]QGTFTSDYSKYLDEKRAKDFVQWLLDHHPSSGQPPPSC
modifications: bridge 16-20; not fully specified (C-terminus)
B3: triple agonist of SEQ ID NO: 79 (peptide)
peptide: H[Aib]EGTFTSDYSIAMDEIHQKDFVNWLLAQKC
modifications: bridge 16-20; not fully specified (C-terminus)
B4: triple agonist of SEQ ID NO: 74 (peptide)
peptide: [Acetyl(2-(4-imidazolyl))][Aib]QGTFTSDYSKCLDEKRAKEFVQWLLDHHPSSGQPPPS
modifications: bridge 16-20; not fully specified (C-terminus)
B5: triple agonist of SEQ ID NO: 73 (peptide)
peptide: [Acetyl(2-(4-imidazolyl))][Aib]QGTFTSDYSKYLDECRAKEFVQWLLDHHPSSGQPPPS
modifications: bridge 16-20; not fully specified (C-terminus)
B6: triple agonist of SEQ ID NO: 65 (peptide)
peptide: H[Aib]QGTFTSDYSKCLDEKRAKEFVQWLLDHHPSSGQPPPS
modifications: bridge 16-20; not fully specified (C-terminus)
B7: triple agonist of SEQ ID NO: 82 (peptide)
peptide: [Acetyl(2-(4-imidazolyl))][Aib]QGTFTSDYSKYLDEKRQKEFVQWLLDTC
modifications: bridge 16-20; not fully specified (C-terminus)
B8: triple agonist of SEQ ID NO: 71 (peptide)
peptide: Y[Aib]QGTFTSDYSKYLDERACKDFVQWLLDHHPSSGQPPPS
modifications: bridge 16-20; not fully specified (C-terminus)
B9: triple agonist of SEQ ID NO: 63 (peptide)
peptide: [Acetyl(2-(4-imidazolyl))][Aib]QGTFTSDCSKYLDERAAQDFVQWLLDGGPSSGAPPPS
modifications: not fully specified (C-terminus)
B10: triple agonist of SEQ ID NO: 62 (peptide)
peptide: [Acetyl(2-(4-imidazolyl))][Aib]QGTFTSDKSKYLDERAAQDFVQWLLDGGPSSGAPPPS
modifications: not fully specified (C-terminus)
B11: triple agonist of SEQ ID NO: 78 (peptide)
peptide: H[Aib]QGTFTSDYSKYLDEKRQKEFVQWLLDTKC
modifications: bridge 16-20; not fully specified (C-terminus)
B12: triple agonist of SEQ ID NO: 68 (peptide)
peptide: Y[Aib]QGTFTSDYSKCLDEKAAKEFVQWLLDHHPSSGQPPPS
modifications: bridge 16-20; not fully specified (C-terminus)
B13: triple agonist of SEQ ID NO: 8 (peptide)
peptide: H[Aib]QGTFTSDVSKYLDGQAAQEFVAWLLKGC
modifications: not fully specified (C-terminus)

The binders below were run against human GCG receptor (human, UniProt P47871 26-477) (assay: cell-based or functional assay).
human GCG receptor, sequence (P47871 26-477): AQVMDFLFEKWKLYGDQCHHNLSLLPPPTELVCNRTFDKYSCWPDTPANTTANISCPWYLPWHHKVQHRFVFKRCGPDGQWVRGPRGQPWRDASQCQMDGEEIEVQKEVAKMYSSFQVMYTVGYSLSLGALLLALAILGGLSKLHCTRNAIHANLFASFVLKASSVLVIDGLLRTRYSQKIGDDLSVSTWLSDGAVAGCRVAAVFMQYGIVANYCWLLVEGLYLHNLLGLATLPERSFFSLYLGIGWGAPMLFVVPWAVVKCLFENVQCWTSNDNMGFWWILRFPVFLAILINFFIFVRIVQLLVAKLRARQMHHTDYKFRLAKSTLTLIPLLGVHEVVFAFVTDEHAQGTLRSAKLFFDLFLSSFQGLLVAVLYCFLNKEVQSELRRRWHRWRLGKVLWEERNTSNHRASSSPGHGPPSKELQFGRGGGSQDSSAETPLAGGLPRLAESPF

Going from B1 to B2, the “in vitro Activity Compared to Native Peptide (%), vs Glucagon” value falls from 60.1% to 47.6%.

First: B3
Second: B4
The “in vitro Activity Compared to Native Peptide (%), vs Glucagon” value of the first is higher: 4.9% for the first, 0.9% for the second.

Going from B5 to B6, the “in vitro Activity Compared to Native Peptide (%), vs Glucagon” value rises from 5.4% to 25.2%.

Compared with B7, B8 is higher in “in vitro Activity Compared to Native Peptide (%), vs Glucagon” value: 1.1% for the first, 12.7% for the second.

B9 and B10 cannot be ordered by “in vitro Activity Compared to Native Peptide (%), vs Glucagon” value: less than 0.1% for the first, less than 0.1% for the second.

First: B11
Second: B12
The “in vitro Activity Compared to Native Peptide (%), vs Glucagon” value of the first is higher: 14% for the first, 8.8% for the second.

In the case of B13, the “in vitro Activity Compared to Native Peptide (%), vs Glucagon” value is reported as 0.1%.

These binders were tested against T1, human GIP receptor (assay: cell-based or functional assay).

Going from B1 to B2, the “in vitro Activity Compared to Native Peptide (%), vs GIP” value falls from 92.9% to 11.7%.

Compared with B3, B4 is lower in “in vitro Activity Compared to Native Peptide (%), vs GIP” value: 1.4% for the first, 1% for the second.

First: B5
Second: B6
The “in vitro Activity Compared to Native Peptide (%), vs GIP” value of the first is lower: 3% for the first, 11.6% for the second.

Compared with B7, B8 is higher in “in vitro Activity Compared to Native Peptide (%), vs GIP” value: less than 0.1% for the first, 94.7% for the second.

B9 and B10 cannot be ordered by “in vitro Activity Compared to Native Peptide (%), vs GIP” value: less than 0.1% for the first, less than 0.1% for the second.

First: B11
Second: B12
The “in vitro Activity Compared to Native Peptide (%), vs GIP” value of the first is lower: 0.12% for the first, 107% for the second.

In the case of B13, the “in vitro Activity Compared to Native Peptide (%), vs GIP” value is reported as less than 0.1%.

Each binder was assayed against human GLP-1 receptor (human, UniProt P43220 24-463) (assay: cell-based or functional assay).

Compared with B1, B2 is lower in “in vitro Activity Compared to Native Peptide (%), vs GLP-1” value: 64.6% for the first, 10.3% for the second.

First: B3
Second: B4
The “in vitro Activity Compared to Native Peptide (%), vs GLP-1” value of the first is higher: 41.5% for the first, 12.9% for the second.

First: B5
Second: B6
The “in vitro Activity Compared to Native Peptide (%), vs GLP-1” value of the first is lower: 22.6% for the first, 95.4% for the second.

Going from B7 to B8, the “in vitro Activity Compared to Native Peptide (%), vs GLP-1” value rises from 9.5% to 90.1%.

First: B9
Second: B10
The “in vitro Activity Compared to Native Peptide (%), vs GLP-1” value of the first is higher: 15.3% for the first, 5.2% for the second.

Going from B11 to B12, the “in vitro Activity Compared to Native Peptide (%), vs GLP-1” value falls from 51% to 27.9%.

For B13, the “in vitro Activity Compared to Native Peptide (%), vs GLP-1” value was 14.2%.
